Data on two molecules can be found in PMC3117075 (2011).

Non-standard residues stand in square brackets, D forms with d. pT = C[C@@H](OP(=O)(O)O)[C@H](N)C(=O)O; pS = N[C@@H](COP(=O)(O)O)C(=O)O

In test [1] the target is T1, Ac-pSPPF-CONH2 (peptide 15) (Homo sapiens, UniProt Q9BX63, SMILES CC(=O)N[C@@H](COP(=O)(O)O)C(=O)N1CCC[C@H]1C(=O)N1CCC[C@H]1C(=O)N[C@@H](Cc1ccccc1)C(N)=O).
T1 chain: Ac-[pS]PPF-NH2
The test can be described thus: fluorescence polarization competition. On the technique in general: Fluorescence polarisation rises when a labelled molecule tumbles more slowly, as on binding a larger partner.

The target of test [2] is T2, Ac-pSPSF-CONH2 (peptide 8) (Homo sapiens, UniProt Q9BX63, SMILES CC(=O)N[C@@H](COP(=O)(O)O)C(=O)N1CCC[C@H]1C(=O)N[C@@H](CO)C(=O)N[C@@H](Cc1ccccc1)C(N)=O).
T2 chain: Ac-[pS]PSF-NH2
The test can be described thus: fluorescence polarization competition.

Test [3] addresses T3, Ac-pSPTF-COOH (peptide 18) (Homo sapiens, UniProt Q9BX63, SMILES CC(=O)N[C@@H](COP(=O)(O)O)C(=O)N1CCC[C@H]1C(=O)N[C@H](C(=O)N[C@@H](Cc1ccccc1)C(=O)O)[C@@H](C)O).
T3 chain: Ac-[pS]PTF-OH
Nature of the test: fluorescence polarization competition.

For test [4], the target named is T4, Ac-pSPAF-CONH2 (peptide 6) (Homo sapiens, UniProt Q9BX63, SMILES CC(=O)N[C@@H](COP(=O)(O)O)C(=O)N1CCC[C@H]1C(=O)N[C@@H](C)C(=O)N[C@@H](Cc1ccccc1)C(N)=O).
T4 chain: Ac-[pS]PAF-NH2
Nature of the test: fluorescence polarization competition.

Test [5] addresses T5, Ac-pSPVF-COOH (peptide 19) (Homo sapiens, UniProt Q9BX63, SMILES CC(=O)N[C@@H](COP(=O)(O)O)C(=O)N1CCC[C@H]1C(=O)N[C@H](C(=O)N[C@@H](Cc1ccccc1)C(=O)O)C(C)C).
T5 chain: Ac-[pS]PVF-OH
Nature of the test: fluorescence polarization competition.

The target in test [6] is T6, Ac-pSPVF-CONH2 (peptide 7) (Homo sapiens, UniProt Q9BX63, SMILES CC(=O)N[C@@H](COP(=O)(O)O)C(=O)N1CCC[C@H]1C(=O)N[C@H](C(=O)N[C@@H](Cc1ccccc1)C(N)=O)C(C)C).
T6 chain: Ac-[pS]PVF-NH2
Nature of the test: fluorescence polarization competition.

The target of test [7] is T3, Ac-pSPTF-COOH (peptide 18). The test can be described thus: ITC. Background: Isothermal titration calorimetry measures the heat released or taken up as one component is titrated into another.
Test [8] deals with T7, Ac-pTPTF-CONH2 (peptide 4) (Homo sapiens, UniProt Q9BX63, SMILES CC(=O)N[C@H](C(=O)N1CCC[C@H]1C(=O)N[C@H](C(=O)N[C@@H](Cc1ccccc1)C(N)=O)[C@@H](C)O)[C@@H](C)OP(=O)(O)O).
T7 chain: Ac-[pT]PTF-NH2
The test can be described thus: fluorescence polarization competition.

For test [9], the target named is T8, Ac-pSATF-CONH2 (peptide 5) (Homo sapiens, UniProt Q9BX63, SMILES CC(=O)N[C@@H](COP(=O)(O)O)C(=O)N[C@@H](C)C(=O)N[C@H](C(=O)N[C@@H](Cc1ccccc1)C(N)=O)[C@@H](C)O).
T8 chain: Ac-[pS]ATF-NH2
The test can be described thus: fluorescence polarization competition.

Test [10] has as its target T9, Ac-EPTF-CONH2 (peptide 2) (Homo sapiens, UniProt Q9BX63).
T9 chain: Ac-EPTF-NH2
Nature of the test: fluorescence polarization competition.

The target of test [11] is T10, Ac-pSPTF-CONH2 (peptide 1) (Homo sapiens, UniProt Q9BX63, SMILES CC(=O)N[C@@H](COP(=O)(O)O)C(=O)N1CCC[C@H]1C(=O)N[C@H](C(=O)N[C@@H](Cc1ccccc1)C(N)=O)[C@@H](C)O).
T10 chain: Ac-[pS]PTF-NH2
Nature of the test: fluorescence polarization competition.

The IC50 is the point on the concentration scale where inhibition reaches its midpoint. For orientation: Kd means the constant that tells how readily two partners part at equilibrium. A lower Kd goes with higher affinity.

B1: BRCA1 BRCT (protein)
chain: STERVNKRMSMVVSGLTPEEFMLVYKFARKHHITLTNLITEETTHVVMKTDAEFVCERTLKYFLGIAGGKWVVSYFWVTQSIKERKMLNEHDFEVRGDVVNGRNHQGPKRARESQDRKIFRGLEICCYGPFTNMPTDQLEWMVQLCGASVVKELSSFTLGTGVHPIVVVQPDAWTEDNGFHAIGQMCEAPVVTREWVLDSVALYQCQELDTYLI
On to B1, for which the IC50 was > 250 µM in [1]; 30.1 µM in test [2]; 1 µM in test [3]; 35 µM in test [4]; 1.6 µM in test [5]; 3.2 µM in test [6]. Besides, the Kd in [7] was 0.19 µM.

B2: BRCA1 BRCT (protein)
chain: VNKRMSMVVSGLTPEEFMLVYKFARKHHITLTNLITEETTHVVMKTDAEFVCERTLKYFLGIAGGKWVVSYFWVTQSIKERKMLNEHDFEVRGDVVNGRNHQGPKRARESQDRKIFRGLEICCYGPFTNMPTDQLEWMVQLCGASVVKELSSFTLGTGVHPIVVVQPDAWTEDNGFHAIGQMCEAPVVTREWVLDSVALYQCQELDTYLIPQIP
As to B2, the IC50 in test [8] is > 250 µM; in [9], 15 µM; in test [10], > 250 µM; in [11] it was 4.6 µM.
